# What was measured:
# [1] = biological target: hIKKβ KD-ULD-SDD region (1–678) (human) (UniProt O14920); assay: SEC
# [2] = biological target: hIKKβ W655D/L658D, purified (human) (UniProt O14920); assay: AUC
# [3] = biological target: WT IKKβ (hIKKβ, parent of the purified dimerization mutants of Figure 5c) (human) (UniProt O14920); assay: AUC
# [4] = biological target: GST-IκBα (1–317) (UniProt P25963)
# [5] = biological target: Full-length hIKKβ (1–756) (human) (UniProt O14920); assay: SEC
# UniProt P25963, sequence (P25963 whole entry): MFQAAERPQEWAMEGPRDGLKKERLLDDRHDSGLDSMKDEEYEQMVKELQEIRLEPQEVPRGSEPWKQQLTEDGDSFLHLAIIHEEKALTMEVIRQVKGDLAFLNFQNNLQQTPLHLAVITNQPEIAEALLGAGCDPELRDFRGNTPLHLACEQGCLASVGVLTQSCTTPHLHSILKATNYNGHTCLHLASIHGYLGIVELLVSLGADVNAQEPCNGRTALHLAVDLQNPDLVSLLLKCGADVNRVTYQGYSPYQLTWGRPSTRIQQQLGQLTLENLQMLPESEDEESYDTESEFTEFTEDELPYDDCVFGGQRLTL
substance,measurement,setting,value
hIKKβ KD-ULD-SDD region (1–678) (from UniProt O14920 1-678) (domain or fragment),stoichiometry N,[1],2
"hIKKβ W655D/L658D, purified (from UniProt O14920 1-756) (enzyme)",fold weaker dimerization affinity than WT,[2],167 fold
"WT IKKβ (hIKKβ, parent of the purified dimerization mutants of Figure 5c) (from UniProt O14920 1-756) (enzyme)",stoichiometry N,[3],2
Full-length hIKKβ (1–756) (from UniProt O14920 1-756) (enzyme),relative Vmax of phosphorylation of full-length IκBα by IKKβ EE,[4],502 a.u.
same,stoichiometry N,[5],2

# Reference: paper PMC3081413
